These results are taken from US20120308571A1 (FUJIFILM RI PHARMA, published 2012).

Experiment [1] deals with T1, human podoplanin (human, UniProt Q86YL7 23-162).
T1 construct: whole, on cells; also called Aggrus
T1 sequence (looked up): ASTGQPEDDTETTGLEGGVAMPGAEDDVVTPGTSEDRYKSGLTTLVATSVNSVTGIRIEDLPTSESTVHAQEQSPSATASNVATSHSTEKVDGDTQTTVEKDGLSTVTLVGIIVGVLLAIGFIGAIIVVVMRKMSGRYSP
The experiment can be described thus: flow cytometry on H226 and LN319 cells, 10 ug/ml antibody. The method, then: First, NZ-1 antibodies, mouse chimera-type NZ-1 antibodies, and human chimera-type NZ-1 antibodies (10 μg/ml) were reacted at 4° C. for 30 minutes with human malignant mesothelioma cells (H226) and human glioma cells (LN319) which expressed human podoplanin. In addition, anti-rat IgG-FITC antibodies, anti-mouse IgG-FITC antibodies, and anti-human IgG-FITC antibodies were respectively reacted at 4° C. for 30 minutes. The fluorescence intensity was measured by FACSCalibur (BD).
Background: A flow cytometer gives signals particle by particle.

Experiment [2] concerns the target T1, human podoplanin. The experiment can be described thus: flow cytometry on H2052 mesothelioma cells, 10 ug/ml antibody. The procedure: Meanwhile, the expression of podoplanin in the mesothelioma cells was confirmed by flow cytometry. Specifically, the cells were reacted with NZ-1 antibodies (10 μg/ml) at 4° C. for 30 minutes, and further reacted with anti-rat IgG-FITC antibodies at 4° C. for 30 minutes. Fluorescence intensity was measured by FACSCalibur (BD).

B1: human chimera-type NZ-1 antibody (antibody)
heavy: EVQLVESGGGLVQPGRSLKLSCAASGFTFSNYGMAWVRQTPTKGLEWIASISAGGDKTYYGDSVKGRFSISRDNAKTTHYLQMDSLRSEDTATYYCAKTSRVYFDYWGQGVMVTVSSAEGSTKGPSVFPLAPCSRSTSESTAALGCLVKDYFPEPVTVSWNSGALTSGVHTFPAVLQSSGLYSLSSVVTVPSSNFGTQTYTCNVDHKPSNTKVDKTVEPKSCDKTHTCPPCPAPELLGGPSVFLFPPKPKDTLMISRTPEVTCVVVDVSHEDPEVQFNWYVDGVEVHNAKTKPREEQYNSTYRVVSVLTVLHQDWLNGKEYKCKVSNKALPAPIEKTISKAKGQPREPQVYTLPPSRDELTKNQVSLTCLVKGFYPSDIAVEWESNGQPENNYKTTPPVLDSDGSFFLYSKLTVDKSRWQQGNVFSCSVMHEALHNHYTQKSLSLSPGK
light: QFVLTQPNSVSTNLGSTVKLSCKRSTGNIGSNYVNWYQQHEGRSPTTMIYRDDKRPDGVPDRFSGSIDRSSNSALLTINNVQTEDEADYFCHSYSSGIVFGGGTKLTVLGQPKGIRTVAAPSVFIFPPSDEQLKSGTASVVCLLNNFYPREAKVQWKVDNALQSGNSQESVTEQDSKDSTYSLSSTLTLSKADYEKHKVYACEVTHQGLSSPVTKSFNRGEC
notes: Heavy chain is the VH of rat NZ-1 joined to the CH1, hinge, CH2 and CH3 of human IgG1; also called human chimeric antibody; human chimera-type antibody
Turning to B1, the binding result with human podoplanin [1] is reported as “binds”.

B2: rat NZ-1 antibody (antibody)
heavy: EVQLVESGGGLVQPGRSLKLSCAASGFTFSNYGMAWVRQTPTKGLEWIASISAGGDKTYYGDSVKGRFSISRDNAKTTHYLQMDSLRSEDTATYYCAKTSRVYFDYWGQGVMVTVSSAETTAPSVYPLAPGTALKSNSMVTLGCLVKGYFPEPVTVTWNSGALSSGVHTFPAVLQSGLYTLTSSVTVPSSTWSSQAVTCNVAHPASSTKVDKKIVPRECNPCGCTGSEVSSVFIFPPKTKDVLTITLTPKVTCVVVDISQNDPEVRFSWFIDDVEVHTAQTHAPEKQSNSTLRSVSELPIVHRDWLNGKTFKCKVNSGAFPAPIEKSISKPEGTPRGPQVYTMAPPKEEMTQSQVSITCMVKGFYPPDIYTEWKMNGQPQENYKNTPPTMDTDGSYFLYSKLNVKKETWQQGNTFTCSVLHEGLHNHHTEKSLSHSPGK
light: QFVLTQPNSVSTNLGSTVKLSCKRSTGNIGSNYVNWYQQHEGRSPTTMIYRDDKRPDGVPDRFSGSIDRSSNSALLTINNVQTEDEADYFCHSYSSGIVFGGGTKLTVLGQPKSTPTLTVFPPSTEELQGNKATLVCLISDFYPSDVEVAWKANGAPISQGVDTANPTKQGNKYIASSFLRLTAEQWRSRNSFTCQVTHEGNTVEKSLSPAECV
notes: Rat monoclonal antibody from the NZ-1 hybridoma; also called rat monoclonal antibody NZ-1
Take B2: in the experiment with human podoplanin [2], the binding result is recorded as “binds”.

B3: mouse chimera-type NZ-1 antibody (antibody)
heavy: EVQLVESGGGLVQPGRSLKLSCAASGFTFSNYGMAWVRQTPTKGLEWIASISAGGDKTYYGDSVKGRFSISRDNAKTTHYLQMDSLRSEDTATYYCAKTSRVYFDYWGQGVMVTVSSAETTAPSVYPLAPGTALKSNSMVTLGCLVKGYFPEPVTVTWNSGALSSGVHTFPAVLQSGLYTLTSSVTVPSSTWSSQAVTCNVAHPASSTKVDKKIVPRRSPPLKECPPCAAPDLLGGPSVFIFPPKIKDVLMISLSPMVTCVVVDVSEDDPDVQISWFVNNVEVHTAQTQTHREDYNSTLRVVSALPIQHQDWMSGKEFKCKVNNRALPSPIEKTISKPRGPVRAPQVYVLPPPAEEMTKKEFSLTCMITGFLPAEIAVDWTSNGRTEQNYKNTATVLDSDGSYFMYSKLRVQKSTWERGSLFACSVVHEGLHNHLTTKTISRSLGK
light: QFVLTQPNSVSTNLGSTVKLSCKRSTGNIGSNYVNWYQQHEGRSPTTMIYRDDKRPDGVPDRFSGSIDRSSNSALLTINNVQTEDEADYFCHSYSSGIVFGGGTKLTVLGQPKSTPTLTVFPPSTEELQGNKATLVCLISDFYPSDVEVAWKANGAPISQGVDTANPTKQGNKYIASSFLRLTAEQWRSRNSFTCQVTHEGNTVEKSLSPAECV
notes: Heavy chain is the VH and CH1 of rat NZ-1 joined to the hinge, CH2 and CH3 of mouse IgG2a; Light chain is the rat NZ-1 L chain; also called mouse chimeric antibody; mouse chimera-type antibody
Turning to B3, the binding result in the experiment with human podoplanin [1] is “binds”.
